Data reported in patent publication US20070093443.

How the values were obtained:
Complement C2 (human) = molecular target: T1, Complement C2 (human)
T1 chain: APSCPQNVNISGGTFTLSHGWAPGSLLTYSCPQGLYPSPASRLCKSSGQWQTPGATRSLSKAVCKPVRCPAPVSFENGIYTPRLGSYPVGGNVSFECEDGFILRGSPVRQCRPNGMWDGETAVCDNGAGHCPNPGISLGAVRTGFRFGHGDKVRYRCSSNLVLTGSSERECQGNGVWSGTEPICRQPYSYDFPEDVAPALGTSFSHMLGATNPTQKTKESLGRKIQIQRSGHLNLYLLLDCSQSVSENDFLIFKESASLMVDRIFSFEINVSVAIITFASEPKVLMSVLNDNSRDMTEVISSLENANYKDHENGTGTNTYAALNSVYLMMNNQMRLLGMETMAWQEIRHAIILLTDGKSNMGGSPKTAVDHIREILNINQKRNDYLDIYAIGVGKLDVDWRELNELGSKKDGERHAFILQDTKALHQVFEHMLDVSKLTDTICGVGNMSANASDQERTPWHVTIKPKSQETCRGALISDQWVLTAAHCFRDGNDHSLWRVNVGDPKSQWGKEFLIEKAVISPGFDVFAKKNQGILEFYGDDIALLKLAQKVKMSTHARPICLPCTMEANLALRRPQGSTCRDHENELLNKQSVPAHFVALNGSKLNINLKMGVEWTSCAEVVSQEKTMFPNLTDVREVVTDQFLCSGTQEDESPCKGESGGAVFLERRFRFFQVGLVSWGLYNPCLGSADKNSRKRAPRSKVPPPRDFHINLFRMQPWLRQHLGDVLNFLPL

Complement C4 (human) = molecular target: T2, Complement C4 (human)
T2 chain 1: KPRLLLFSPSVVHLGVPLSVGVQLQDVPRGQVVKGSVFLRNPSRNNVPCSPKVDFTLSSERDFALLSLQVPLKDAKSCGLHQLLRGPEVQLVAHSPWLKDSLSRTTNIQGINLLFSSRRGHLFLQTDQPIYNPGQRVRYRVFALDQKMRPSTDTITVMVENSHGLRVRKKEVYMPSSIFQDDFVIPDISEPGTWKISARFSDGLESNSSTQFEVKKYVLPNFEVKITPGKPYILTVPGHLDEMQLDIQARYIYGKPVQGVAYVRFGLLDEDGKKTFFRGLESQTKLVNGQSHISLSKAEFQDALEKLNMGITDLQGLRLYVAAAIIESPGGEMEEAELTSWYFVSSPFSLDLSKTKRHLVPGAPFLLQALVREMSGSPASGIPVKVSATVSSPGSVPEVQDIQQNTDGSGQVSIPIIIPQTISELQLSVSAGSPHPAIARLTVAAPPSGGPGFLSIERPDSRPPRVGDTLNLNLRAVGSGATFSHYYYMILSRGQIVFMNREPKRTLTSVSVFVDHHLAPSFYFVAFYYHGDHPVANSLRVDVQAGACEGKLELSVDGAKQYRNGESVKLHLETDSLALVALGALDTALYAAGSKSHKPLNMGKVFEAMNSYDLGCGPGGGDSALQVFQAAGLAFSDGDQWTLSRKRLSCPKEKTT
T2 chain 2: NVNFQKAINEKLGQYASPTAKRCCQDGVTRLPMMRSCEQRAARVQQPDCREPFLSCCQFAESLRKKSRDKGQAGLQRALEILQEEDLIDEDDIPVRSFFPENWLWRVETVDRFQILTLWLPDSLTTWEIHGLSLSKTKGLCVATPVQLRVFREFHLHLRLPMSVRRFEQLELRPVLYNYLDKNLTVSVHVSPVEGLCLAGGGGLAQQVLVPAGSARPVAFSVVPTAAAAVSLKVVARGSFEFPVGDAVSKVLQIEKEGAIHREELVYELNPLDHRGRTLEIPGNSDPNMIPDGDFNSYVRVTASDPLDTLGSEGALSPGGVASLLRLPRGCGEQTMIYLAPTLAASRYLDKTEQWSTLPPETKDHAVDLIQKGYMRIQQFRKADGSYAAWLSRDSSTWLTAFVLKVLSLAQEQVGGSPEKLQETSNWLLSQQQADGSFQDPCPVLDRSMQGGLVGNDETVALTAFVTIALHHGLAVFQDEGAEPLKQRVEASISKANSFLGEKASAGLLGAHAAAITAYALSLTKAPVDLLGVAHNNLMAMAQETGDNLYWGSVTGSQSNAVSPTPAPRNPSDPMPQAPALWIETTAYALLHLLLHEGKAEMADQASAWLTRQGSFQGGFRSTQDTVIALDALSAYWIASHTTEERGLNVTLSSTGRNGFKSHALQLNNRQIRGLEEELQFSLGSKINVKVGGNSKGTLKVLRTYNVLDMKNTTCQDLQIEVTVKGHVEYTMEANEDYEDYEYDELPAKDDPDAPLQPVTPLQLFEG
T2 chain 3: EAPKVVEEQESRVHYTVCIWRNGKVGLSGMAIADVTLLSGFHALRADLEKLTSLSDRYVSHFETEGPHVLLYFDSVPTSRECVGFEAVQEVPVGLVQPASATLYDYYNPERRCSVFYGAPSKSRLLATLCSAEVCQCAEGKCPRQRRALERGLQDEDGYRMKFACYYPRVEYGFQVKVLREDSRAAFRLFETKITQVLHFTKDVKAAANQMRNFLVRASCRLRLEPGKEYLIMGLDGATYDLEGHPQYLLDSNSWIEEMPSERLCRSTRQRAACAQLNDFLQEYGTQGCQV

[1] = molecular target: Complement component C6 (human)
Ac-SLGR-AMC = molecular target: T3, Ac-SLGR-AMC
T3 chain: SLGR

[2] = molecular target: Complement component C8 (human)
[3] = molecular target: Complement component C9 (human)
Ac-RQAR-AMC = molecular target: T4, Ac-RQAR-AMC
T4 chain: RQAR

Ac-GLAR-AMC = molecular target: T5, Ac-GLAR-AMC
T5 chain: GLAR

[4] = molecular target: Complement component C7 (human)
Sequence of Complement component C7 (human) (chain, as listed by the source): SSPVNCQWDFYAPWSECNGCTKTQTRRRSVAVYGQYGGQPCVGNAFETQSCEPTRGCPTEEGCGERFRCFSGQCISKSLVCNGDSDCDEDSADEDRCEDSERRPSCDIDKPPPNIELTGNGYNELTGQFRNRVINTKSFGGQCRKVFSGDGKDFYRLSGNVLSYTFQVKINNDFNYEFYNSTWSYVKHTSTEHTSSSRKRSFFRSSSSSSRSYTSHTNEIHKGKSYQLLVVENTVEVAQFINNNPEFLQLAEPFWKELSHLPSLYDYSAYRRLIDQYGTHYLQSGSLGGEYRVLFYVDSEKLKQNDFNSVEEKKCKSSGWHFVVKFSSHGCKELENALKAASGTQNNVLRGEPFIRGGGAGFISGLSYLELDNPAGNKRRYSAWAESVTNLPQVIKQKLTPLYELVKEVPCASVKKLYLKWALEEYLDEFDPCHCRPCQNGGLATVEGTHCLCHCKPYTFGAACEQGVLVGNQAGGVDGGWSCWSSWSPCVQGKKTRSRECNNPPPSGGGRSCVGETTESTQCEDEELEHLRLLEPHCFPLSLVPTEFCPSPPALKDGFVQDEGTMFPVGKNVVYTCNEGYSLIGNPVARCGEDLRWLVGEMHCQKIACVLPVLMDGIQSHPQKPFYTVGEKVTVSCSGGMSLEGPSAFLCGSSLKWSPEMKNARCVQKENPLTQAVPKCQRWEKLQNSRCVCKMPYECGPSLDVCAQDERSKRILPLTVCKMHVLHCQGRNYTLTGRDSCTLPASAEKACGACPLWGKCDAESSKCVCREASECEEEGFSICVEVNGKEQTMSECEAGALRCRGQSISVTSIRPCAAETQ

Sequence of Complement C5 (human) (chain, as listed by the source, chain 1 of 2): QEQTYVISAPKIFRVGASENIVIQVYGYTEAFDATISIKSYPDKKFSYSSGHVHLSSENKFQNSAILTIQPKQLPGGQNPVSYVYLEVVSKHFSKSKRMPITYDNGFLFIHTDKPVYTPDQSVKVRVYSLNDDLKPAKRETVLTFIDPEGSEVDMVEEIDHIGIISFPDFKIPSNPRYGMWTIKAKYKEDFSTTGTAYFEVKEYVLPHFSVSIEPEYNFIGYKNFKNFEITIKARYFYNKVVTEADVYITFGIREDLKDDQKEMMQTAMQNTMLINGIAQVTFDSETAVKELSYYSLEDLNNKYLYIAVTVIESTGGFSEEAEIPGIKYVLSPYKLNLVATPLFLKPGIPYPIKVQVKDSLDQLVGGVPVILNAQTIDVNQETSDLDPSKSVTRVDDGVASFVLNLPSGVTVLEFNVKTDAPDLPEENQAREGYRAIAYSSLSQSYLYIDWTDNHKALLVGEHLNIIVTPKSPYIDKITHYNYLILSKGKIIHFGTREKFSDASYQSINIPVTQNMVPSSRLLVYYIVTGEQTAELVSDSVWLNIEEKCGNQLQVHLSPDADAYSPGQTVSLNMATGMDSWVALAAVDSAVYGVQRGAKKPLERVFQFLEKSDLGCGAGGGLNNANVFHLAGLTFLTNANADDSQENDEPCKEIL
Sequence of Complement C5 (human) (chain, as listed by the source, chain 2 of 2): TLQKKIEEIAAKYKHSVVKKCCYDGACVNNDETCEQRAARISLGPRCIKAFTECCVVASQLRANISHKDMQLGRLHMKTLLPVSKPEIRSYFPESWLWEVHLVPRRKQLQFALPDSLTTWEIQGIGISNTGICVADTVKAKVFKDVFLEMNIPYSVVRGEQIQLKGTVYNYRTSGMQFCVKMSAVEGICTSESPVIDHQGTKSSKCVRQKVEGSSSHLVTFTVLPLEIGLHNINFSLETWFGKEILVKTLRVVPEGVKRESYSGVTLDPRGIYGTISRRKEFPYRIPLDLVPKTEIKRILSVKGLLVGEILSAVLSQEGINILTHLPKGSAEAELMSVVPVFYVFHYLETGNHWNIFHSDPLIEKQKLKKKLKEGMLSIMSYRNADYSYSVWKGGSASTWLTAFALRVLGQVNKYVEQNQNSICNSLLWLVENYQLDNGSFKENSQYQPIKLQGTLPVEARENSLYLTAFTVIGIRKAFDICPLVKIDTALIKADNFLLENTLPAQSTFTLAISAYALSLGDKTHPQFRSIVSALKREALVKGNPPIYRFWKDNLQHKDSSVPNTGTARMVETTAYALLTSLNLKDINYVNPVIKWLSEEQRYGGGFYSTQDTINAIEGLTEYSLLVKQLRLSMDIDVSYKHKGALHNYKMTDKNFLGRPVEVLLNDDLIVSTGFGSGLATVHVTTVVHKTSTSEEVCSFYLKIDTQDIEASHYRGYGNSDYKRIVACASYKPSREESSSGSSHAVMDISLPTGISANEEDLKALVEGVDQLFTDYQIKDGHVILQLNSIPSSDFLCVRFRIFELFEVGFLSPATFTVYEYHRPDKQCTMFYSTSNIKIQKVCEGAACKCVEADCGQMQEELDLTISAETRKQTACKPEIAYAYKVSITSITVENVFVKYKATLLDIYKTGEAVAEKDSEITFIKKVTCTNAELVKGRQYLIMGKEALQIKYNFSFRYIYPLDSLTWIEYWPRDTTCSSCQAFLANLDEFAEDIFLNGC
Sequence of Complement component C9 (human) (chain, as listed by the source): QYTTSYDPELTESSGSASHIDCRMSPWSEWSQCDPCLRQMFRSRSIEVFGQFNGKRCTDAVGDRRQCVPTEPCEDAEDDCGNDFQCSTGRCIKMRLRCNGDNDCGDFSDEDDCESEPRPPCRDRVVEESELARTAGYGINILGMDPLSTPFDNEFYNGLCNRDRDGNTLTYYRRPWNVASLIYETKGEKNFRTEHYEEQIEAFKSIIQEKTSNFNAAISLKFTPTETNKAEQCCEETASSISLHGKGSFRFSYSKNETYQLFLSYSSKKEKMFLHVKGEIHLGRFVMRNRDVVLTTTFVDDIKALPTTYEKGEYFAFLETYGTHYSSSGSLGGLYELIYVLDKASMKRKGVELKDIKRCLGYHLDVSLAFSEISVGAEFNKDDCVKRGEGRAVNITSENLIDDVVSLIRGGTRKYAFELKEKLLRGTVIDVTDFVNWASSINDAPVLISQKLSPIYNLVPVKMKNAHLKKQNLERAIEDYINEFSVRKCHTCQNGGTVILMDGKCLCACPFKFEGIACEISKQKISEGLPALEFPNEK
Sequence of Complement component C8 (human) (chain, as listed by the source, chain 1 of 3): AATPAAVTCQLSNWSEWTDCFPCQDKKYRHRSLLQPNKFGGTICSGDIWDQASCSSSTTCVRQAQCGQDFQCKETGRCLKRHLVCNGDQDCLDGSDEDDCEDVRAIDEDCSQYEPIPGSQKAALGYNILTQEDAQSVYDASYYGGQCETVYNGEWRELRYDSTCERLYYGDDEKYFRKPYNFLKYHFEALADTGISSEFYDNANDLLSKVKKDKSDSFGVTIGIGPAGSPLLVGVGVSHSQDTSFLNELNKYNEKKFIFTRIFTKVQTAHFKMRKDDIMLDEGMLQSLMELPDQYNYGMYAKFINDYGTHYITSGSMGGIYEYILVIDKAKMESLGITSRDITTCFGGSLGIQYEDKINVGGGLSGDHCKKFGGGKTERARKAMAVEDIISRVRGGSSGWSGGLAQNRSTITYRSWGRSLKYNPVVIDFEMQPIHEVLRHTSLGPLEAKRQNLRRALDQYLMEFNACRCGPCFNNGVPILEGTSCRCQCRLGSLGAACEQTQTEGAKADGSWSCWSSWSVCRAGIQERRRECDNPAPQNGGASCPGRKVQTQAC
Sequence of Complement component C8 (human) (chain, as listed by the source, chain 2 of 3): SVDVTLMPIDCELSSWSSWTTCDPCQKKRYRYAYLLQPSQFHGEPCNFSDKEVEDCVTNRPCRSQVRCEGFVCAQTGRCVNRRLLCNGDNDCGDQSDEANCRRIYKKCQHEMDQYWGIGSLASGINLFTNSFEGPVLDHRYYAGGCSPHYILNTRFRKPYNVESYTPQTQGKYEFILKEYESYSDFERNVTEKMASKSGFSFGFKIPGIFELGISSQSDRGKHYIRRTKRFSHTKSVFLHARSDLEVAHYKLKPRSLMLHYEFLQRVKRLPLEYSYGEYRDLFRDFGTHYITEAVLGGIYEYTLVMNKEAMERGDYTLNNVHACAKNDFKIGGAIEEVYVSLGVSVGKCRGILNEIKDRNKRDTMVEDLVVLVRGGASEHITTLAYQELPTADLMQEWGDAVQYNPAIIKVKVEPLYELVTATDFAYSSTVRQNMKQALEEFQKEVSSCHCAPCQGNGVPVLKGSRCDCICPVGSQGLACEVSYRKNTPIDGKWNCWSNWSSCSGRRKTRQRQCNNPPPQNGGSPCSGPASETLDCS
Sequence of Complement component C8 (human) (chain, as listed by the source, chain 3 of 3): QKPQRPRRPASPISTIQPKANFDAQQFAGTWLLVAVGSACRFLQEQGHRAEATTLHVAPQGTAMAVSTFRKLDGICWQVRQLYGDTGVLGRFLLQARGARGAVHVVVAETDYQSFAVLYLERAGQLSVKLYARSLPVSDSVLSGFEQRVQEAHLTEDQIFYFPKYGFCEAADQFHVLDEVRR

B1: wildtype MT-SP1 protease domain (CB200) (protein)
chain: VVGGTDADEGEWPWQVSLHALGQGHICGASLISPNWLVSAAHCYIDDRGFRYSDPTQWTAFLGLHDQSQRSAPGVQERRLKRIISHPFFNDFTFDYDIALLELEKPAEYSSMVRPICLPDASHVFPAGKAIWVTGWGHTQYGGTGALILQKGEIRVINQTTCENLLPQQITPRMMCVGFLSGGVDSCQGDSGGPLSSVEADGRIFQAGVVSWGDGCAQRNKPGVYTRLPLFRDWIKENTGV
B1 was tested. Which Fraction of Hemolysis (protease-incubated purified complement protein added back to depleted sera) (Complement C2 (human)) did it give?
The Fraction of Hemolysis (protease-incubated purified complement protein added back to depleted sera) was 0.

And the “cleavage in 90% human plasma by Western blot” value (Complement C2 (human))?
Its value is “cleaved C2 in human plasma in a dose-dependent manner”.

What about the “fraction C5b-9 generated, Total Complement System Screen (classical and MBL pathways), 1 uM protease in human plasma” value (Complement C2 (human)) of the same protein?
The value was “the fraction C5b-9 generated upon complement activation induced by the classical and MBL pathways was almost completely inhibited”.

And the “hemolysis (OD415) by protease-preincubated purified complement protein added back to the corresponding depleted sera” value (“hemolysis (OD415)” below) (Complement C2 (human))?
Its value is “resulted in an inhibition of hemolysis as assessed by a reduced OD415 absorbance to levels comparable to the depleted sera control”.

And the kcat/Km (specificity constant) of cleavage of full length C2, in gel kinetics (SDS-PAGE densitometry time course) (Complement C2 (human))?
Its kcat/Km (specificity constant) of cleavage of full length C2, in gel kinetics (SDS-PAGE densitometry time course) is 19500 M⁻¹ s⁻¹.

What about the Fraction of Hemolysis (protease-incubated purified complement protein added back to depleted sera) (Complement C4 (human)) of the same protein?
Its Fraction of Hemolysis (protease-incubated purified complement protein added back to depleted sera) is 0.97.

And the “hemolysis (OD415)” value (Complement C4 (human))?
The value was “showed no decreased hemolysis as compared to normal sera or the no protease control”.

What about the “hemolysis (OD415)” value [1] of the same protein?
Its value is “showed no decreased hemolysis as compared to normal sera or the no protease control”.

What about the “hemolysis (OD415)” value (Complement C1q (human)) of the same protein?
Its value is “showed no decreased hemolysis as compared to normal sera or the no protease control”.

What about the kcat/Km (specificity constant), fluorogenic peptide cleavage (Ac-SLGR-AMC) of the same protein?
The kcat/Km (specificity constant), fluorogenic peptide cleavage was 20000 M⁻¹ s⁻¹.

What about the “hemolysis (OD415)” value [2] of the same protein?
The value was “showed no decreased hemolysis as compared to normal sera or the no protease control”.

What about the Fraction of Hemolysis (protease-incubated purified complement protein added back to depleted sera) (Complement C5 (human)) of the same protein?
Its Fraction of Hemolysis (protease-incubated purified complement protein added back to depleted sera) is 0.888.

And the “hemolysis (OD415)” value (Complement C5 (human))?
Its value is “showed no decreased hemolysis as compared to normal sera or the no protease control”.

What about the “hemolysis (OD415)” value [3] of the same protein?
Its value is “showed no decreased hemolysis as compared to normal sera or the no protease control”.

What about the kcat/Km (specificity constant), fluorogenic peptide cleavage (Ac-RQAR-AMC) of the same protein?
Its kcat/Km (specificity constant), fluorogenic peptide cleavage is 1.9e+06 M⁻¹ s⁻¹.

What about the kcat/Km (specificity constant), fluorogenic peptide cleavage (Ac-GLAR-AMC) of the same protein?
Its kcat/Km (specificity constant), fluorogenic peptide cleavage is 64000 M⁻¹ s⁻¹.

What about the Fraction of Hemolysis (protease-incubated purified complement protein added back to depleted sera) (Complement C3 (human)) of the same protein?
The Fraction of Hemolysis (protease-incubated purified complement protein added back to depleted sera) was 0.00834.

What about the “cleavage in 90% human plasma by Western blot” value (Complement C3 (human)) of the same protein?
Its value is “none of the tested proteases cleaved C3 in human plasma as compared to the no protease control even at the highest concentration of protease (2000 nM)”.

And the “hemolysis (OD415)” value (Complement C3 (human))?
Its value is “showed no decreased hemolysis as compared to normal sera or the no protease control”.

What about the “hemolysis (OD415)” value [4] of the same protein?
The value was “showed no decreased hemolysis as compared to normal sera or the no protease control”.
